Values of other authors as cited in PMC2773841.

Molecular target: DnaK (Escherichia coli) (UniProt P0A6Y8)
Sequence (P0A6Y8 2-638): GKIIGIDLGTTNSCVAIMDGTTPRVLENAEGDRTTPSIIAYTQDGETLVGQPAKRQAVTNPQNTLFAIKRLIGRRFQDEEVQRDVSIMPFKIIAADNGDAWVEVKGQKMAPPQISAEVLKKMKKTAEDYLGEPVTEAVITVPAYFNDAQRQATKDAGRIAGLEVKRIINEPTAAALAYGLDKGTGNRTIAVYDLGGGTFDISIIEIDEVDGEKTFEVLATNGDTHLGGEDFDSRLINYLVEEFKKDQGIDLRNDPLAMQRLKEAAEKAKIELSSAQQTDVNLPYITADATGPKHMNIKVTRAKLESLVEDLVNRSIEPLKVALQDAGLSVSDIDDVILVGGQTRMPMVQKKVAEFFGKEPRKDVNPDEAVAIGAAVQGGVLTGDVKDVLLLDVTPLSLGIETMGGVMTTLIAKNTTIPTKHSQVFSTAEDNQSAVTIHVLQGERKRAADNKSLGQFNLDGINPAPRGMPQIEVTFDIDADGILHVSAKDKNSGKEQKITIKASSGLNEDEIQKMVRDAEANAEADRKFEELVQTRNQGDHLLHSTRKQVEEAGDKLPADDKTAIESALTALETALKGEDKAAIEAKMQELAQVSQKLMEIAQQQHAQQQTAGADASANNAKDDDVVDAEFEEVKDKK

GrpE, sequence (P09372 whole entry): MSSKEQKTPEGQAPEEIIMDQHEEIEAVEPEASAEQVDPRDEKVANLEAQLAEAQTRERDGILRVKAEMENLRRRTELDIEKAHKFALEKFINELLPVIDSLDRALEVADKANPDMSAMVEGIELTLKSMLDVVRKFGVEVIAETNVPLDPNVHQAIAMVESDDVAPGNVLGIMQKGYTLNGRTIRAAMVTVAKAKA

Kd: 1 nM
Substance: GrpE (from UniProt P09372)
